Measurements: US20240279281A1, “Peptide Inhibitors of Interleukin-23 Receptor” (Janssen Pharmaceutica NV, priority 2023, published 2024)
Positions of bridges follow the written chain, without caps; N, C: chain ends. Non-standard residues stand in square brackets, D forms with d. No end group written: not given here. Trp(7-Me) = Cc1cccc2c(C[C@H](N)C(=O)O)c[nH]c12; d(hLys(Me3)) = C[N+](C)(C)CCCCC[C@@H](N)C(=O)O; 3Pal = N[C@@H](Cc1cccnc1)C(=O)O; Lipidated = not defined here; NMeK = CN[C@@H](CCCCN)C(=O)O; Pen = CC(C)(S)[C@H](N)C(=O)O; lipid = not defined here; Thp = NC1(C(=O)O)CCOCC1; Sar = CNCC(=O)O

Molecular target: T1, interleukin-23 receptor (IL-23R), Q5VWK5
T1 chain: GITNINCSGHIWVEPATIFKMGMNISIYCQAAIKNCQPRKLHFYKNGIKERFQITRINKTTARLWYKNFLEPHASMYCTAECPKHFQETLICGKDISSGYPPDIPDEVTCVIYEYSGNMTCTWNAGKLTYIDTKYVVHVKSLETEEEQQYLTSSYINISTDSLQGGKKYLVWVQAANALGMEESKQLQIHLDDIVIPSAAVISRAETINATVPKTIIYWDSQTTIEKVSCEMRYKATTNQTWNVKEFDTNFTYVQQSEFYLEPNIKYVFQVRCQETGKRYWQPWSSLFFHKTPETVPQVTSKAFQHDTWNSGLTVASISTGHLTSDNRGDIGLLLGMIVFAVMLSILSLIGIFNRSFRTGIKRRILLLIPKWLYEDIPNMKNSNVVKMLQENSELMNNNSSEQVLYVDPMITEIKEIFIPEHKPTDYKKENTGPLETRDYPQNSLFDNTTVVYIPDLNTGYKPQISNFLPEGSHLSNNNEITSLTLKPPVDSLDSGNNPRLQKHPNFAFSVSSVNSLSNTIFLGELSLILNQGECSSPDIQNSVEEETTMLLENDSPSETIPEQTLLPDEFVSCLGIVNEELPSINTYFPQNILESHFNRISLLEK
Assay: cell-based or functional assay

Binder	PBMC pSTAT3 IC50 [nM]
K(lipid)[Pen]NT[Trp(7-Me)]K(Ac)[Pen][2‑amino‑3‑(4-(2-aminoethoxy)phenyl)propanoic acid][2‑amino‑3‑(6-hydroxynaphthalen-2-yl)propanoic acid][Thp]K(Ac)N[3Pal][Sar] (disulfide 2-7 (inferred); ends not checked; also: K1: lipidated lysine, lipid not given here) [SEQ ID NO: 164]	< 1
[(R)‑3‑carboxy‑2‑(4-(((R)-5-carboxy-5-hydrazineylpentyl)amino)-4-oxobutanamido)‑N,N,N‑trimethylpropan‑1‑aminium][Pen]NT[Trp(7-Me)]K(Ac)[Pen][2‑amino‑3‑(4-(2-aminoethoxy)phenyl)propanoic acid][2‑amino‑3‑(6-hydroxynaphthalen-2-yl)propanoic acid][Thp]EN[3Pal][NMeK] (disulfide 2-7 (inferred); not fully specified (residue 14); ends not checked; also: X14: lipidated N-methyl-lysine, lipid not given here) [SEQ ID NO: 210]	< 1
[d(hLys(Me3))][Pen]NT[Trp(7-Me)]K(Ac)[Pen][2‑amino‑3‑(4-(2-aminoethoxy)phenyl)propanoic acid][2‑amino‑3‑(6-hydroxynaphthalen-2-yl)propanoic acid][Thp]K(Ac)N[3Pal][Sar]K(lipid) (disulfide 2-7 (inferred); ends not checked; also: K15 lipidated lysine, lipid not given here) [SEQ ID NO: 181]	< 1
[Pen]ET[Trp(7-Me)]K(Ac)[Pen][2‑amino‑3‑(4-(2-aminoethoxy)phenyl)propanoic acid][2‑amino‑3‑(6-hydroxynaphthalen-2-yl)propanoic acid][Thp]K(Lipidated)N[3Pal][Sar] (disulfide 1-6 (inferred); ends not checked; also: K10: lipidated lysine, lipid not given here) [SEQ ID NO: 193]	< 1
[Pen]NT[Trp(7-Me)]K(Ac)[Pen][5‑(4-(2-amino-2-carboxyethyl)phenoxy)‑N,N,N‑trimethylpentan‑1‑aminium][2‑amino‑3‑(6-hydroxynaphthalen-2-yl)propanoic acid][Thp]K(Lipidated)N[3Pal][Sar] (disulfide 1-6 (inferred); ends not checked; also: K10: lipidated lysine, lipid not given here) [SEQ ID NO: 198]	< 1
[d(hLys(Me3))][Pen]NT[Trp(7-Me)]K(Ac)[Pen][2‑amino‑3‑(4-(2-aminoethoxy)phenyl)propanoic acid][2‑amino‑3‑(6-hydroxynaphthalen-2-yl)propanoic acid][Thp]K(Lipidated)N[3Pal][Sar] (disulfide 2-7 (inferred); ends not checked; also: K11 lipidated lysine, lipid not given here) [SEQ ID NO: 184]	< 1
[Pen]NT[Trp(7-Me)]K(Ac)[Pen][2‑amino‑3‑(4-(2-aminoethoxy)phenyl)propanoic acid][2‑amino‑3‑(6-hydroxynaphthalen-2-yl)propanoic acid][Thp]K(Lipidated)N[3Pal][Sar] (disulfide 1-6 (inferred); ends not checked; also: K10 lipidated lysine, lipid not given here) [SEQ ID NO: 186]	< 1
[Pen]ET[Trp(7-Me)]K(Lipidated)[Pen][2‑amino‑3‑(4-(2-aminoethoxy)phenyl)propanoic acid][2‑amino‑3‑(6-hydroxynaphthalen-2-yl)propanoic acid][Thp]K(Ac)N[3Pal][Sar] (disulfide 1-6 (inferred); ends not checked; also: K5: lipidated lysine, lipid not given here) [SEQ ID NO: 192]	< 1
[Pen]ET[Trp(7-Me)]K(Ac)[Pen][2‑amino‑3‑(4-(2-aminoethoxy)phenyl)propanoic acid][2‑amino‑3‑(6-hydroxynaphthalen-2-yl)propanoic acid][Thp]K(Ac)N[3Pal][Sar]K(lipid) (disulfide 1-6 (inferred); ends not checked; also: K14 lipidated, lipid not given here) [SEQ ID NO: 170]	< 1
[Pen]NT[Trp(7-Me)]K(Ac)[Pen][2‑amino‑3‑(4-(2-aminoethoxy)phenyl)propanoic acid][2‑amino‑3‑(6-hydroxynaphthalen-2-yl)propanoic acid][Thp]K(Ac)N[3Pal][Sar]K(lipid) (disulfide 1-6 (inferred); ends not checked; also: K14 lipidated lysine, lipid not given here) [SEQ ID NO: 182]	< 1
[Pen]NT[Trp(7-Me)]K(Ac)[Pen][2‑amino‑3‑(4-(2-aminoethoxy)phenyl)propanoic acid][2‑amino‑3‑(6-hydroxynaphthalen-2-yl)propanoic acid][Thp]K(Ac)N[3Pal][Sar]K(lipid) (disulfide 1-6 (inferred); ends not checked; also: K14: lipidated lysine, lipid not given here) [SEQ ID NO: 165]	> 1
R[Pen]NT[Trp(7-Me)]K(Ac)[Pen][2‑amino‑3‑(4-(2-aminoethoxy)phenyl)propanoic acid][2‑amino‑3‑(6-hydroxynaphthalen-2-yl)propanoic acid][Thp]EN[3Pal][Sar]K(Lipidated) (disulfide 2-7 (inferred); ends not checked; also: K15: lipidated lysine, lipid not given here) [SEQ ID NO: 191]	< 1
[Pen]ET[Trp(7-Me)]K(Ac)[Pen][2‑amino‑3‑(4-(2-aminoethoxy)phenyl)propanoic acid][2‑amino‑3‑(6-hydroxynaphthalen-2-yl)propanoic acid][Thp]K(Ac)N[3Pal][Sar]K(lipid) (disulfide 1-6 (inferred); ends not checked; also: K14 lipidated, lipid not given here) [SEQ ID NO: 169]	< 1
[(R)‑3‑carboxy‑2‑(4-(((R)-5-carboxy-5-hydrazineylpentyl)amino)-4-oxobutanamido)‑N,N,N‑trimethylpropan‑1‑aminium][Pen]NT[Trp(7-Me)]K(Ac)[Pen][2‑amino‑3‑(4-(2-aminoethoxy)phenyl)propanoic acid][2‑amino‑3‑(6-hydroxynaphthalen-2-yl)propanoic acid][Thp]EN[3Pal][Sar]K(lipid) (disulfide 2-7 (inferred); ends not checked; also: K15: lipidated lysine, lipid not given here) [SEQ ID NO: 166]	< 1
[Pen]NT[Trp(7-Me)]K(Ac)[Pen][2‑amino‑3‑(4-(2-aminoethoxy)phenyl)propanoic acid][2‑amino‑3‑(6-hydroxynaphthalen-2-yl)propanoic acid][Thp]K(Lipidated)N[3Pal][Sar] (disulfide 1-6 (inferred); ends not checked; also: K10 lipidated lysine, lipid not given here) [SEQ ID NO: 185]	< 1
R[Pen]NT[Trp(7-Me)]K(Ac)[Pen][2‑amino‑3‑(4-(2-aminoethoxy)phenyl)propanoic acid][2‑amino‑3‑(6-hydroxynaphthalen-2-yl)propanoic acid][Thp]EN[3Pal][NMeK] (disulfide 2-7 (inferred); not fully specified (residue 14); ends not checked; also: X14 lipidated N-methyl-lysine, lipid not given here) [SEQ ID NO: 190]	< 1
[(R)‑3‑carboxy‑2‑(4-(((R)-5-carboxy-5-hydrazineylpentyl)amino)-4-oxobutanamido)‑N,N,N‑trimethylpropan‑1‑aminium][Pen]NT[Trp(7-Me)]K(Ac)[Pen][2‑amino‑3‑(4-(2-aminoethoxy)phenyl)propanoic acid][2‑amino‑3‑(6-hydroxynaphthalen-2-yl)propanoic acid][Thp]EN[3Pal][NMeK] (disulfide 2-7 (inferred); not fully specified (residue 14); ends not checked; also: X14: lipidated N-methyl-lysine, lipid not given here) [SEQ ID NO: 204]	< 1
